Article PMC2150824 (The Journal of Cell Biology, 2001)

Tests used:
[1] = target: F-actin (rabbit skeletal muscle actin) (rabbit, UniProt P68135 1-377); assay: co-sedimentation
SEC = target: the molecule itself; assay: SEC

| binding result [1] | Binder | stoichiometry N (SEC) |
| --- | --- | --- |
| binds | yeast coronin (natural protein) MSGKFVRASKYRHVFGQAAKKELQYEKLKVTNNAWDSNLLKTNGKFIAVNWNASGGGAFAVIPIEEVGKAPDQVPLFRGHTAQVLDTDFDPFNDHRIASGSDDSKIGIWDIPENYKFHDHVDEDGEPIDIKPVKFLTGHARKVGHVLYHPVAENVLASSSGDYTVKLWNVETGKDMITLKHPDMVTSMSFSYDGNYLATVARDKKLRVWNIREEKIVSEGPAHTGAKNQRVVWLGNSDRLATTGFSKLSDRQIGIWDAFNIEKGDLGGFYTVDQSSGILMPFYDEGNKILYLVGKGDGNIRYYEFQNDELFELSEFQSTEAQRGFAVAPKRMVNVKENEVLKGFKTVVDQRIEPVSFFVPRRSEEFQEDIYPDAPSNKPALTAEEWFSGKSVEGPILVSMRSIYDGSAPSFHEAKRPQQPTTQETALEEKKEQPKVEKPISESEKEVKQEAPKSPSPLKSASSSSTINHVLKEDNSINKLLKKSSDIDQVNNAEDPSRDTSGWEEADDEPAPIKIETPVTPTETKKDRTPKVEPSKELKPEPVSIATDRKQEQSLPQEEKSSEKTKSPEQEKSATPPSSITAAKTAITASSKEEPSAARTSPKSLGLKKSVEKLSTLVLQLEDVVDKLTKANLDKDERLLKLEQKIGELSK |  |
|  | endogenous Hip1R stripped from CCVs with 0.5 M Tris-HCl (natural protein, UniProt Q9JKY5 1-1068, looked up) MNSIKNVPARVLSRRPGHSLEAEREQFDKTQAISISKAINSQEAPVKEKHARRIILGTHHEKGAFTFWSYAIGLPLSSSSILSWKFCHVLHKVLRDGHPNVLHDYQRYRSNIREIGDLWGHLRDQYGHLVNIYTKLLLTKISFHLKHPQFPAGLEVTDEVLEKAAGTDVNNIFQLTVEMFDYMDCELKLSESVFRQLNTAIAVSQMSSGQCRLAPLIQVIQDCSHLYHYTVKLMFKLHSCLPADTLQGHRDRFHEQFHSLKNFFRRASDMLYFKRLIQIPRLPEGPPNFLRASALAEHIKPVVVIPEEAPEEEEPENLIEISSAPPAGEPVVVADLFDQTFGPPNGSMKDDRDLQIENLKREVETLRAELEKIKMEAQRYISQLKGQVNGLEAELEEQRKQKQKALVDNEQLRHELAQLKALQLEGARNQGLREEAERKASATEARYSKLKEKHSELINTHAELLRKNADTAKQLTVTQQSQEEVARVKEQLAFQMEQAKRESEMKMEEQSDQLEKLKRELAARAGELARAQEALSRTEQSGSELSSRLDTLNAEKEALSGVVRQREAELLAAQSLVREKEEALSQEQQRSSQEKGELRGQLAEKESQEQGLRQKLLDEQLAVLRSAAAEAEAILQDAVSKLDDPLHLRCTSSPDYLVSRAQAALDSVSGLEQGHTQYLASSEDASALVAALTRFSHLAADTIVNGAATSHLAPTDPADRLMDTCRECGARALELVGQLQDQTVLPRAQPSLMRAPLQGILQLGQDLKPKSLDVRQEELGAMVDKEMAATSAAIEDAVRRIEDMMSQARHESSGVKLEVNERILNSCTDLMKAIRLLVMTSTSLQKEIVESGRGAATQQEFYAKNSRWTEGLISASKAVGWGATQLVESADKVVLHMGKYEELIVCSHEIAASTAQLVAASKVKANKNSPHLSRLQECSRTVNERAANVVASTKSGQEQIEDRDTMDFSGLSLIKLKKQEMETQVRVLELEKTLEAERVRLGELRKQHYVLAGGMGTPSEEEPSRPSPAPRSGATKKPPLAQKPSIAPRTDNQLDKKDGVYPAQLVNY | 2 |
